Broadly, the stoichiometry N is a count of units in the complex or per binding partner.

Consider three molecules from paper doi:10.1101/2023.10.05.561050 (bioRxiv, 2023).

What all share (assay): PIE-FCCS
Data set [1] addresses Myr-GCN4-EGFRk-FP (multimer control).
The target in data set [2] is Myr-GCN4-FP (dimer control).
Data set [3] concerns the molecule itself.

Regarding Myr-GCN4-EGFRk-FP (multimer control), in data set [1], the fc (median cross-correlation value) worked out at 0.23.

In data set [2], Myr-GCN4-FP (dimer control) came in with a fc (median cross-correlation value) of 0.14.

B1: Myr-ICD-ΔS (EphA2 intracellular domain without the SAM domain, AA 559-882, with a membrane localization sequence) (domain or fragment)
chain: HRRRKNQRARQSPEDVYFSKSEQLKPLKTYVDPHTYEDPNQAVLKFTTEIHPSCVTRQKVIGAGEFGEVYKGMLKTSSGKKEVPVAIKTLKAGYTEKQRVDFLGEAGIMGQFSHHNIIRLEGVISKYKPMMIITEYMENGALDKFLREKDGEFSVLQLVGMLRGIAAGMKYLANMNYVHRDLAARNILVNSNLVCKVSDFGLSRVLEDDPEATYTTSGGKIPIRWTAPEAISYRKFTSASDVWSFGIVMWEVMTYGERPYWELSNHEVMKAINDGFRLPTPMDCPSAIYQLMMQCWQQERARRPKFADIVSILDKLIRAPDSLK
modifications: N-terminal myristoylation of the c-Src-derived peptide
For the molecule B1, the “stoichiometry N” value in data set [3] is 2.
